Results published in patent publication US20250243261A1.

What was measured:
[1] = target: SARS-CoV-2 Beta-variant Spike with two stabilizing proline substitutions (S-2P) (SARS-CoV-2 Beta variant); assay: BLI, IgG, single replicate
[2] = target: SARS-CoV-2 Omicron-variant receptor binding domain (RBD) (SARS-CoV-2 Omicron variant); assay: BLI, IgG
[3] = target: SARS-CoV-2 Beta-variant Spike with two stabilizing proline substitutions (S-2P) (SARS-CoV-2 Beta variant); assay: BLI, Fab
[4] = target: SARS-CoV-2 Omicron-variant receptor binding domain (RBD) (SARS-CoV-2 Omicron variant); assay: BLI, Fab
[5] = target: SARS-CoV-2 XBB.1.5 Spike RBD (SARS-CoV-2 XBB.1.5 variant); assay: BLI, IgG
[6] = target: SARS-CoV-2 XBB Spike RBD (SARS-CoV-2 XBB variant); assay: BLI, IgG
[7] = target: SARS-CoV-2 BQ.1.1 Spike RBD (SARS-CoV-2 BQ.1.1 variant); assay: BLI, IgG

B1: REGN10987 WT IgG (antibody, V domains shown)
VH: QVQLVESGGGVVQPGRSLRLSCAASGFTFSNYAMYWVRQAPGKGLEWVAVISYDGSNKYYADSVKGRFTISRDNSKNTLYLQMNSLRTEDTAVYYCASGSDYGDYLLVYWGQGTLVTVSS
VL: QSALTQPASVSGSPGQSITISCTGTSSDVGGYNYVSWYQQHPGKAPKLMIYDVSKRPSGVSNRFSGSKSGNTASLTISGLQSEDEADYYCNSLTSISTWVFGGGTKLTVL
For B1, the Kd [1] was 0.09 nM and the Kd [2] was 700 nM.

B2: REGN10987 WT Fab (Fab, V domains shown)
VH: B1 VH
VL: B1 VL
In the case of B2, the Kd [3] is reported as 13 nM and the Kd [4] is reported as 23000 nM.

B3: SA58 WT IgG (antibody, V domains shown)
VH: QVQLAQSGSELRKPGASVKVSCDTSGHSFTSNAIHWVRQAPGQGLEWMGWINTDTGTPTYAQGFTGRFVFSLDTSARTAYLQISSLKADDTAVFYCARERDYSDYFFDYWGQGTLVTVSS
VL: EVVMTQSPASLSVSPGERATLSCRARASLGISTDLAWYQQRPGQAPRLLIYGASTRATGIPARFSGSGSGTEFTLTISSLQSEDSAVYYCQQYSNWPLTFGGGTKVEIK
Binder B3 has a Kd [5] of 2400 nM, a Kd [6] of 7400 nM and a Kd [7] of under 0.001 nM.
